Test results: US12385058B2, “Herbicide tolerance protein, encoding gene thereof and use thereof” (Beijing Dabeinong Biotechnology Co., Ltd., priority 2018, dated 2025)

Tests used:
soybean plants = experiment: Herbicide tolerance of transgenic soybean T1 plants (spraying, damage degree); type: in vivo; conditions: sprayed with tribenuron-methyl 144 g ai/ha, eight-fold field concentration
Protocol: The degree of damage caused by the herbicide was measured for each plant according to the leaf curl degree and the growth point damage degree 3 days after spraying (3 DAT), 7 days after spraying (7 DAT), 14 days after spraying (14 DAT) and 21 days after spraying (21 DAT): the case where the leaves are flat as untreated plants and the growth points are intact is defined as having a damage degree of 0%; the case where veins are locally browned, new leaves are malformed and plant growth is slow is defined as having a damage degree of 50%; and the case where veins are purple, until the whole plant is dead and the growth points are browned and dry is defined as having a damage degree of 100%. The soybean plants into which the ALT02M1-01 nucleotide sequence was introduced were of three strains in total (S1, S2 and S3), the soybean plants into which the ALT02M2-01 nucleotide sequence was introduced were of three strains in total (S4, S5 and S6), the soybean plants into which the ALT02M3-01 nucleotide sequence was introduced were of three strains in total (S7, S8 and S9), the soybean plants into which the ALT02-01 nucleotide sequence was introduced were of three strains in total (S10, S11 and S12), the control soybean plants were of two strains in total (S13 and S14), and the wild-type soybean plants were of one strain in total (CK1); and 10-15 plants were selected from each strain and tested.

[1] = type: biochemical; conditions: 0.2 μg enzyme, 0.2 mM substrate, pH 7.0, 30° C., 20 min
Protocol: (§1) Each reaction was timed beginning with the addition of reactive enzyme, and was terminated with 1 mL of dichloromethane. The organic phase after delamination was dehydrated with anhydrous sodium sulfate.
(§2) The above dehydrated reaction solution was blown dry with nitrogen and filtered by adding 1 mL of methanol, and 20 μL of the filtrate was subjected to liquid chromatography-mass spectrometry (LC-MS). High performance liquid chromatography (HPLC) conditions were as follows: mobile phase being methanol:water (80:20, V/V), Zorbax XDB-C18 chromatographic column (3.5 μm, 2.1×50 mm, Agilent, USA), column temperature being room temperature, UV detector, with a detection wavelength of 255 nm, a sample injection volume of 20 μL, and a flow rate of 0.25 mL/min. The primary ion mass spectrometry conditions were as follows: ion detection mode being multi-reactive ion detection; ion polarity being negative ion; ionization mode being electrospray ionization; a capillary voltage of 4000 volts; a dry gas temperature of 330° C., a flow rate of 10 L/min, an atomizing gas pressure of 35 psi, a collision voltage of 135 volts; and a mass scan range of 300-500 m/z. The secondary ion mass spectrometry conditions were as follows: a collision voltage of 90 volts; a mass scanning range of 30-400 m/z, and other conditions being the same as those of the primary ion mass spectrometry. It was identified by LC-MS that the metabolite of thifensulfuron-methyl was thiophene sulfonic acid, and the metabolite of metsulfuron-methyl, chlorimuron-ethyl, bensulfuron-methyl, sulfometuron-methyl or tribenuron-methyl was its corresponding sulfonic acid. The amount of the generated thiophene sulfonic acid (metabolite) was detected using high performance liquid chromatography (HPLC).

[2] = Degradation of sulfometuron-methyl by purified herbicide tolerant proteins (enzymatic activity, HPLC); type: biochemical; conditions: 0.2 μg enzyme, 0.2 mM substrate, pH 7.0, 30° C., 20 min
Protocol: as §1, §2

B1: ALT02M1-01: nucleotide sequence SEQ ID NO: 25 encoding ALT02M1, based on soybean codon usage bias (nucleic acid)
DNA: ATGGAGACTGATAACGTGGAACTCGCCCAATCTAAGAGAAAGGTGGTGCTGGCTGAACAAGGGTCATTTTACATAGGGGGTAGGACTGTTACTGGTCCTGGCAAGTTTGATCCATCCAAACCTGTGATACCCTACAGTAACGAAGGAGCAACATTCTATATTAACCAAATGTATGTTAACTTCCAGGCCCCAGTGAGACCTAGGGGACTTCCATTGGTTTTCTGGCATGGAGGTGGCTTGACTGGTCACATCTGGGAGTCTACACCTGACGGCAGACCCGGGTTTCAAACCCTCTTCGTTCAGGATAGGCATACCGTGTACACTATTGACCAACCTGGGAGAGGAAGGGGTAACATCCCAACTTTTAACGGACCTTTCGGACAGTTGGAGGAAGAGAGTATTGTTAACACTGTGACAGCCAATTCTTCAAAGGAAGGTGCCTGGGTGAGAGATAGGCTTGGCCCTGCTCCCGGGCAATTTTTCGAGAACTCTCAGTTTCCTAGAGGCTATGAAGACAATTACTTTAAGGAGATGGGATTCAGCCCATCTATATCCAGTGATGAAATTGTTGACGCTGTTGTGAAACTCGTGACCCATATTGGTCCTTGTGTTCTGGTGACTCACTCAGCATCCGGCGTTCTTGGGATGAGAGTGGCTACACACGCAAAGAATGTTAGGGGAATTGTGGCCTATGAACCAGCTACCTCAATCTTCCCCAAGGGAAAAGTTCCAGAGATACCACCTCTCGCTGATAAGAAAAGCCAAATCTTTCCCCCATTCGAAATACAGGAGTCTTACTTTAAGAAACTTGCCAAGATTCCAATCCAATTTGTTTTCGGAGATAACATCCCCAAGAATCCAAAATCAGCATATTGGTTCCTGGACTGGTGGAGAGTGACAAGATACGCACATAGTCTCAGCCTGGAGGCCATAAACAAATTGGGGGGACAAGCTTCCCTTTTGGATCTTCCTACTGCAGGATTGAGAGGTAATACACACTTTCCCTTCACCGATAGGAACAATGTTCAGGTGGCTTCTCTCCTGTCAGACTTTCTGGGTAAACACGGTCTGGATCAAAATGAGAGCAAACTCGCCGCCGCCCTGGAATGA
modifications: the ALT02M1-01 nucleotide sequence encoding the amino acid sequence corresponding to the herbicide tolerant protein ALT02M1 and based on the soybean codon usage bias
herbicide tolerance compared with soybean plants into which ALT02-01 was introduced (soybean plants): significantly increased tolerance to benzenesulfonic acid | herbicide tolerance imparted to transgenic soybean plants (soybean plants): impart transgenic soybean plants with the tolerance to benzenesulfonic acid

B2: ALT03: ALT03 protein (362 amino acids), SEQ ID NO: 35; unmutated herbicide tolerant protein (protein)
chain: METDNVELAQSKRKVVLAEQGSFYIGGRTVTGPGKFDPSKPVIPYSNEGATFYINQMYVNFQAPVRPRGLPLVFWHGGGLTGHIWESTPDGRPGFQTLFVQDRHTVYTIDQPGRGRGNIPTFNGPFGQLEEESIVNTVTGNSSKEGAWVRDRLGPAPGQFFENSQFPRGYEDNYFKEMGFSPSISSDEIVDAVVKLVTHIGPCVLVTHSASGVLGMRVATHAKNVRGIVAYEPATSIFPKGKVPEIPPLADKKSQIFPPFEIQESYFKKLAKIPIQFVFGDNIPKNPKSAYWFLDWWRVTRYAHSLSLEAINKLGGQASLLDLPTAGLRGNTHFPFTDRNNVQVASLLSDFLGKHGLDQNES
modifications: the amino acid sequence of ALT03
specific enzyme activity, bensulfuron-methyl [1]: 1.6 µmol/min/mg | specific enzyme activity, chlorimuron-ethyl [1]: 2.6 µmol/min/mg | specific enzyme activity, metsulfuron-methyl [1]: 1.9 µmol/min/mg | specific enzyme activity, thifensulfuron-methyl [1]: 26.0 µmol/min/mg | specific enzyme activity, tribenuron-methyl [1]: 1.7 µmol/min/mg | specific enzyme activity, sulfometuron-methyl [2]: 1.8 µmol/min/mg

B3: ALT04: ALT04 protein (350 amino acids), SEQ ID NO: 51; unmutated herbicide tolerant protein (protein)
chain: MSKRKVVLAEQGSFYIGGRTVTGPGKFDPSKPVIPYSNEGATFYINQMYVNFQAPVRPRGLPLVFWHGGGLTGHIWESTPDGRPGFQTLFVQDRHTVYTIDQPGRGRGNIPTFNGPFGQLEEESIVNTVTGNSSKEGAWVRDRLGPAPGQFFENSQFPRGYEDNYFKEMGFSPSISSDEIVDAVVKLVTHIGPCVLVTHSASGVLGMRVATHAKNVRGIVAYEPATSIFPKGKVPEIPPLADKKSQIFPPFEIQESYFKKLAKIPIQFVFGDNIPKNPKSAYWFLDWWRVTRYAHSLSLEAINKLGGQASLLDLPTAGLRGNTHFPFTDRNNVQVASLLSDFLGKHGLDQ
modifications: the amino acid sequence of ALT04
specific enzyme activity, bensulfuron-methyl [1]: 1.5 µmol/min/mg | specific enzyme activity, chlorimuron-ethyl [1]: 2.4 µmol/min/mg | specific enzyme activity, metsulfuron-methyl [1]: 1.8 µmol/min/mg | specific enzyme activity, thifensulfuron-methyl [1]: 24.7 µmol/min/mg | specific enzyme activity, tribenuron-methyl [1]: 1.6 µmol/min/mg | specific enzyme activity, sulfometuron-methyl [2]: 1.7 µmol/min/mg

B4: ALT04M3: herbicide tolerant protein, SEQ ID NO: 63; ALT04 mutated at positions 35, 36, 131, 133 and 137 (protein)
chain: MSKRKVVLAEQGSFYIGGRTVTGPGKFDPSKPVIRASNEGATFYINQMYVNFQAPVRPRGLPLVFWHGGGLTGHIWESTPDGRPGFQTLFVQDRHTVYTIDQPGRGRGNIPTFNGPFGQLEEESIVNTVTANVSKERAWVRDRLGPAPGQFFENSQFPRGYEDNYFKEMGFSPSISSDEIVDAVVKLVTHIGPCVLVTHSASGVLGMRVATHAKNVRGIVAYEPATSIFPKGKVPEIPPLADKKSQIFPPFEIQESYFKKLAKIPIQFVFGDNIPKNPKSAYWFLDWWRVTRYAHSLSLEAINKLGGQASLLDLPTAGLRGNTHFPFTDRNNVQVASLLSDFLGKHGLDQ
modifications: the amino acid sequence of the ALT04M3
specific enzyme activity, bensulfuron-methyl [1]: 0.6 µmol/min/mg | specific enzyme activity, chlorimuron-ethyl [1]: 34.6 µmol/min/mg | specific enzyme activity, metsulfuron-methyl [1]: 3.8 µmol/min/mg | specific enzyme activity, thifensulfuron-methyl [1]: 16.0 µmol/min/mg | specific enzyme activity, tribenuron-methyl [1]: 3.0 µmol/min/mg | specific enzyme activity, sulfometuron-methyl [2]: 1.0 µmol/min/mg

B5: ALT01: ALT01 protein (398 amino acids), SEQ ID NO: 1; unmutated herbicide tolerant protein (protein, listed as Methylophilus sp.)
chain: MGTALLTGTSAASPVLAAGTGAIGIATLPLSTATAPAGTAAVGLAGSLALVVLAGGGSPTIGGATVTGPGLPAPSLPVIPTSAGGATPTIAGMTVAPGAPVAPAGLPLVPTHGGGLTGHITGSTPAGAPGPGTLPVGAAHTVTTIAGPGAGAGAIPTPAGPPGGLGGGSIVATVTGASSLGGATVAAALGPAPGGPPGASGPPAGTGAATPLGMGPSPSISSAGIVAAVVLLVTHIGPCVLVTHSASGVLGMAVATHALAVAGIVATGPATSIPPLGLVPGIPPLAALLSGIPPPPGIGGSTPLLLALIPIGPVPGAAIPLAPLSATTPLATTAVTATAHSLSLGAIALLGGGASLLALPTAGLAGATHPPPTAAAAVGVASLLSAPLGLHGLAGAGS
specific enzyme activity, bensulfuron-methyl [1]: 1.7 µmol/min/mg | specific enzyme activity, chlorimuron-ethyl [1]: 2.7 µmol/min/mg | specific enzyme activity, metsulfuron-methyl [1]: 2.0 µmol/min/mg | specific enzyme activity, thifensulfuron-methyl [1]: 27.4 µmol/min/mg | specific enzyme activity, tribenuron-methyl [1]: 1.8 µmol/min/mg | specific enzyme activity, sulfometuron-methyl [2]: 1.9 µmol/min/mg
